Assay in all cases: Calcium mobilization (FLIPR, Fluo-3) in transfected COS-7 cells
What all share (type): cell-based

One assay deals with T1, h α2C adr (Homo sapiens, UniProt P18825).
T1 construct: expressed in transfected cells; host or cells: COS-7
T1 sequence (P18825 1-462): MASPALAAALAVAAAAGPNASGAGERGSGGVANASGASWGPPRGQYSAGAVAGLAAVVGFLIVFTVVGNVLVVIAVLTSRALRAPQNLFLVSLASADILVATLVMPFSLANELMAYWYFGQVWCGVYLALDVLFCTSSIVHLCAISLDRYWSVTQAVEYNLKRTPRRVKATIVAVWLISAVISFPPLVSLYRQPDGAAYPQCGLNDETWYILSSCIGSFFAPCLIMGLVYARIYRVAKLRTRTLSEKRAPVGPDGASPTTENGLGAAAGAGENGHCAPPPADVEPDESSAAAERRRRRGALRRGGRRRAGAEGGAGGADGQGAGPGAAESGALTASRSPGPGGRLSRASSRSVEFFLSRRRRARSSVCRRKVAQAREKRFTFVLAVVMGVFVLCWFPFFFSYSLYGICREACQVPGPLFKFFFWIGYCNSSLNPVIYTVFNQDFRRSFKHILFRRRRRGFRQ
As to conditions: h α2C adr + chimera in COS-7; agonist NE, max 100 μM. As to the method:
(§1) COS-7 cells were cultured in 225 cm^2 flasks in Dulbecco's Modified Eagle Medium (DMEM) with supplements (10% bovine calf serum, 4 mM glutamine, 100 units/ml penicillin and 100 μg/ml streptomycin) at 37° C., 5% CO2. Stock plates of COS-7 cells were trypsinized and split 1:6 every 3–4 days.
(§2) GPCR and chimeric G protein cDNAs were transiently transfected into COS-7 cells in 150 cm^2 flasks by the DEAE-dextran method (Cullen, 1987), using a total of 20 μg of DNA/˜7×10^6 cells. For evaluating the function of a single chimeric G protein, the standard cDNA transfection ratio was 1:1 (10 μg GPCR cDNA and 10 μg chimeric G protein cDNA). For evaluating the function of a mixture of chimeric G proteins, the standard cDNA transfection ratio was 8:1:1 (16 μg GPCR cDNA, 2 μg Gαq/z cDNA, 2 μg Gαq/s cDNA).
(§3) Twenty four hours after transient transfection, COS-7 cells were seeded into 96-well black wall microtiter plates coated with poly-D-lysine for assay the following day. Just prior to assay, culture medium was aspirated and cells were dye-loaded with 4 μM Fluo-3/0.01% pluronic acid in assay buffer composed of Hank's Balanced Salt Solution (138 mM NaCl, 5 mM KCl, 1.3 mM CaCl2, 0.5 mM MgCl2, 0.4 mM MgSO4, 0.3 mM KH2PO4, 0.3 mM Na2HPO4, 5.6 mM glucose) plus 20 mM HEPES (pH 7.4), 0.1% BSA and 2.5 mM probenicid (100 μl/well) for 1 hour in 5% CO2 at 37° C. After excess dye was discarded, cells were washed in assay buffer and layered with a final volume equal to 100 μl/well. Basal fluorescence was monitored in a fluorometric imaging plate reader (FLIPR™, Molecular Devices) with an excitation wavelength of 488 nm and an emission range of 500 to 560 nm. Laser excitation energy was adjusted so that basal fluorescence readings were approximately 10,000 relative fluorescent units. Cells were stimulated with agonists diluted in assay buffer (50 μl), and relative fluorescent units were measured at defined intervals (exposure=0.4 sec) over a 3 min period at room temperature. Maximum change in fluorescence was calculated for each well. Concentration-response curves derived from the maximum change in fluorescence were analyzed by nonlinear regression (Hill equation).

The target in another assay is h 5HT6 (Homo sapiens, UniProt P50406). The conditions noted are these: h 5HT6 + chimera in COS-7; agonist 5HT, max 100 μM. As to the method: as §1, §2, §3
Sequence of h 5HT6 (P50406 whole entry): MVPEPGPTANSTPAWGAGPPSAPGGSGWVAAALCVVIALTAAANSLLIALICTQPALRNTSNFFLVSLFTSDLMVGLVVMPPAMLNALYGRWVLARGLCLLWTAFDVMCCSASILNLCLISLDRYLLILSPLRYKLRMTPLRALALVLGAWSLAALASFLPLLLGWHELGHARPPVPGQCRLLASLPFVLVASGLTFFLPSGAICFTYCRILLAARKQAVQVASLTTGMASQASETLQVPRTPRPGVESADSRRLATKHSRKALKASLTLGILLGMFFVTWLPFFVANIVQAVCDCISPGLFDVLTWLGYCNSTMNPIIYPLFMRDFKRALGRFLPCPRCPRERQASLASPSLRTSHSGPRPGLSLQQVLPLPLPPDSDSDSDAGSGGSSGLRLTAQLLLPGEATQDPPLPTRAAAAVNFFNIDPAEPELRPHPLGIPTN
The next assay concerns the target T2, h α1A adr (Homo sapiens, UniProt P35348).
T2 construct: expressed in transfected cells; host or cells: COS-7
T2 sequence (P35348 1-466): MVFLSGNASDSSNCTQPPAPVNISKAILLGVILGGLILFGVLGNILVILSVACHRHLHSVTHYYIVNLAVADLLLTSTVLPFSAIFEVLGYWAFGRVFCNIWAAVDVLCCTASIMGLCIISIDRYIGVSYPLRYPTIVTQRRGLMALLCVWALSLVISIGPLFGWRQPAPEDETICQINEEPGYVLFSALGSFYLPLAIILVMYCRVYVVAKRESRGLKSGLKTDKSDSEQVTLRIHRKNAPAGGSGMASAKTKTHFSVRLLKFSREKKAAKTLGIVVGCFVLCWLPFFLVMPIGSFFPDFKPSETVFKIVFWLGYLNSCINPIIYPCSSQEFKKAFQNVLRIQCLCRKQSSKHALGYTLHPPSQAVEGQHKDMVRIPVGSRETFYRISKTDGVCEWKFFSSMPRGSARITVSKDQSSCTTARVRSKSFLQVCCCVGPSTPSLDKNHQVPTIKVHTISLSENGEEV
The conditions noted are these: h α1A adr + chimera in COS-7; agonist NE, max 100 μM. The procedure: as §1, §2, §3

For another assay, the target named is h D5 (Homo sapiens, UniProt P21918). As to conditions: h D5 + chimera in COS-7; agonist DA, max 100 μM. The procedure: as §1, §2, §3
Sequence of h D5 (P21918 whole entry): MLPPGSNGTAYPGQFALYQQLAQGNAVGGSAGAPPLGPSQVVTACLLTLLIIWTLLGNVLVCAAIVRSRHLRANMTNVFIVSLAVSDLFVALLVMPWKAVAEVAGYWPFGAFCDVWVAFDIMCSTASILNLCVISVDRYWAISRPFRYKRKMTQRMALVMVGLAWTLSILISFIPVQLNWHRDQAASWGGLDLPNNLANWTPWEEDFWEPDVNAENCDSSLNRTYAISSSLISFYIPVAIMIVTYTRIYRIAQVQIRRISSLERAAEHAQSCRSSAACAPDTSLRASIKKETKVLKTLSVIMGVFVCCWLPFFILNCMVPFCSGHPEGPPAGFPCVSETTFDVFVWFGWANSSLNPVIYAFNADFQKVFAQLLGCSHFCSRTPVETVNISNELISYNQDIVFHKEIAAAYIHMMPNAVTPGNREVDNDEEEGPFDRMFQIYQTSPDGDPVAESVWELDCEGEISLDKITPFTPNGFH
A further assay concerns the target h 5HT4 (Homo sapiens, UniProt Q13639). As to conditions: h 5HT4 + chimera in COS-7; agonist 5HT, max 100 μM. As to the method: as §1, §2, §3
Another assay has as its target m 5HT5A (Mus musculus, UniProt P30966). The conditions noted are these: m 5HT5A + chimera in COS-7; agonist 5HT, max 100 μM. The procedure:
as §1, §2, §3

The target of a further assay is T3, h GALR1 (Homo sapiens, UniProt P47211).
T3 construct: expressed in transfected cells; host or cells: COS-7
T3 sequence (P47211 1-349): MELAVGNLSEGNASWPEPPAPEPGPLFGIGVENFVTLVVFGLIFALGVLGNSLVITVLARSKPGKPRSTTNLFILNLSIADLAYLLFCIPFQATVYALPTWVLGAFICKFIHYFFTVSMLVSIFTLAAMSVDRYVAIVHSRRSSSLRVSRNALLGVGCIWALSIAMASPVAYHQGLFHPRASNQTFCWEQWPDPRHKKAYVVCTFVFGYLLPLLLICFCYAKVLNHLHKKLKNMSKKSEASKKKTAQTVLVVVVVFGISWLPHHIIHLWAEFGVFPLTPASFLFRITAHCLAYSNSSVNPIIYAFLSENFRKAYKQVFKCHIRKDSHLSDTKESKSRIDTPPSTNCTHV
The conditions noted are these: h GALR1 + chimera in COS-7; agonist GAL, max 10 μM. The procedure: as §1, §2, §3

Sequence of m 5HT5A (P30966 whole entry): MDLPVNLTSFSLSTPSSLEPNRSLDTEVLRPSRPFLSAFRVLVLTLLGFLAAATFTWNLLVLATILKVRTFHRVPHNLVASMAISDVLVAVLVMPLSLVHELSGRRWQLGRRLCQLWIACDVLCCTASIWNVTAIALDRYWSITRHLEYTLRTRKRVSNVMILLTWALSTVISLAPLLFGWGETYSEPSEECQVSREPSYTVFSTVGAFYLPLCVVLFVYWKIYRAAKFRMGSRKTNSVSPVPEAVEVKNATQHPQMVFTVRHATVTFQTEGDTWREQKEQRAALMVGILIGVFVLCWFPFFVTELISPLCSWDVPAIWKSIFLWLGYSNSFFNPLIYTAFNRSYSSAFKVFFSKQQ
Sequence of h 5HT4 (Q13639 whole entry): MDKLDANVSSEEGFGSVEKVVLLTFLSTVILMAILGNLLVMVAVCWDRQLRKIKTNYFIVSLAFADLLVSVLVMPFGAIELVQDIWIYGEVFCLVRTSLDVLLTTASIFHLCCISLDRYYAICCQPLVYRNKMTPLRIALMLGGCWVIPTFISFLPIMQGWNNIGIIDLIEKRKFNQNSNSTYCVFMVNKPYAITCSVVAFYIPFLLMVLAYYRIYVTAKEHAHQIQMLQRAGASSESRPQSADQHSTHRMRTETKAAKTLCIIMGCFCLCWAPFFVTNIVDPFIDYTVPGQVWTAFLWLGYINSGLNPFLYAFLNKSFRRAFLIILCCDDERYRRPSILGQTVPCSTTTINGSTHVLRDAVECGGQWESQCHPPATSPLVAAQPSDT

B1: cGαq/z5: chimeric Gα subunit: C-terminal final 5 amino acids of C. elegans Gαq replaced with those of hGαz (SEQ ID NO: 1) (protein)
chain: MACCLSEEAREQKRINQEIEKQLQRDKRNARRELKLLLLGTGESGKSTFIKQMRIIHGQGYSEEDKRAHIRLVYQNVFMAIQSMIRAMDTLDIKFGNESEELQEKAAVVREVDFESVTSFEEPYVSYIKELWEDSGIQECYDRRREYQLTDSAKYYLSDLRRLAVPDYLPTEQDILRVRVPTTGIIEYPFDLEQIIFRMVDVGGQRSERRKWIHCFENVTSIMFLVALSEYDQVLVECDNENRMEESKALFRTIITYPWFTNSSVILFLNKKDLLEEKILYSHLADYFPEYDGPPRDPIAAREFILKMFVDLNPDADKIIYSHFTCATDTENIRFVFAAVKDTILQHNLKYIGLC
modifications: C. elegans
Regarding B1, the “MAXIMAL SIGNAL (FLUORESCENCE UNITS)” value with h α2C adr is recorded as 4143 fluorescence units; in the assay with h 5HT6, 1289 fluorescence units; with h α1A adr, 9816 fluorescence units; with h D5, 657 fluorescence units; with h 5HT4 it was 1011 fluorescence units; with m 5HT5A it was 351 fluorescence units. Besides, the “MAXIMAL SIGNAL (FLUORESCENCE UNITS)” value with h GALR1 stood at 7648 fluorescence units.

B2: cGαq/z9: C. elegans Gαq with Gαz portion of the C-terminal tail extended to 9 amino acids (SEQ ID NO: 2) (protein)
chain: MACCLSEEAREQKRINQEIEKQLQRDKRNARRELKLLLLGTGESGKSTFIKQMRIIHGQGYSEEDKRAHIRLVYQNVFMAIQSMIRAMDTLDIKFGNESEELQEKAAVVREVDFESVTSFEEPYVSYIKELWEDSGIQECYDRRREYQLTDSAKYYLSDLRRLAVPDYLPTEQDILRVRVPTTGIIEYPFDLEQIIFRMVDVGGQRSERRKWIHCFENVTSIMFLVALSEYDQVLVECDNENRMEESKALFRTIITYPWFTNSSVILFLNKKDLLEEKILYSHLADYFPEYDGPPRDPIAAREFILKMFVDLNPDADKIIYSHFTCATDTENIRFVFAAVKDTILQNNLKYIGLC
modifications: C. elegans
Consider B2, for which the “MAXIMAL SIGNAL (FLUORESCENCE UNITS)” value with h α2C adr is listed as 3874 fluorescence units; with h 5HT6, 2287 fluorescence units; with h α1A adr, 6597 fluorescence units; in the assay with h D5 it was 797 fluorescence units; in the assay with h 5HT4, 1696 fluorescence units; with m 5HT5A, 270 fluorescence units. The “MAXIMAL SIGNAL (FLUORESCENCE UNITS)” value with h GALR1 is recorded as 8489 fluorescence units.
